Results from patent publication US20180215825A1 (BEIGENE, published 2018).

T1: human FcγRIIAH131 expressed on HEK293 cells (human, UniProt P12318 34-317)
T1 construct: whole, on cells
T1 sequence (looked up): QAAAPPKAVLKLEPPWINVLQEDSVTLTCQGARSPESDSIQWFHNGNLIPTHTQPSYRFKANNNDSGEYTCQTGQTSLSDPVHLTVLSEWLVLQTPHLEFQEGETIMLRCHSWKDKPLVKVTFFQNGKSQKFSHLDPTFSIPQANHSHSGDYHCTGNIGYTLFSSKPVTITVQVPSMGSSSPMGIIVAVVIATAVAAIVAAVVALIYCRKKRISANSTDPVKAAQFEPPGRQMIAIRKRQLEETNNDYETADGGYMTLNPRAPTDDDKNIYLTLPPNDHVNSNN

T2: human FcγRIIAR131 expressed on HEK293 cells (human, UniProt P12318 34-317)
T2 construct: whole, on cells
T2 sequence (looked up): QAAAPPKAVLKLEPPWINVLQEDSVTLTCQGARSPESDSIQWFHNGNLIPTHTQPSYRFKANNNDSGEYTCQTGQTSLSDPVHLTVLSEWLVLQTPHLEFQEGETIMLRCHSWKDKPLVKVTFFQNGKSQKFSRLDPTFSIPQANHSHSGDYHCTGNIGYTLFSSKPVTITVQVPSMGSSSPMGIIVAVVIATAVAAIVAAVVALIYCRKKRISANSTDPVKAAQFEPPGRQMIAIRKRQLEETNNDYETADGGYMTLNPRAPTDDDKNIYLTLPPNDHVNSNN

T3: human FcγRIIB expressed on HEK293 cells (human, UniProt P31994 43-310)
T3 construct: whole, on cells
T3 sequence (looked up): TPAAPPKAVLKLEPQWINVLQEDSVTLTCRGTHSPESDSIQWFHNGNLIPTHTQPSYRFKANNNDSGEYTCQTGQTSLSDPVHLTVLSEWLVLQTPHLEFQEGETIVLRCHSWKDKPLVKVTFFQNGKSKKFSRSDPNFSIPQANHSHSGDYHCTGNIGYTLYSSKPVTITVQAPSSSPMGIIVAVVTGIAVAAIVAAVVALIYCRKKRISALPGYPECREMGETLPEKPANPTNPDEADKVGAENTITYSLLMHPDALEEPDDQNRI


Assays:
[1] = biological target: T4, human FcγRI expressed on HEK293 cells (human, UniProt P12314 16-374); experiment: FACS, monomeric mAb on FcγR-expressing HEK293 cells
T4 construct: whole, on cells; Co-expressed with FcRγ subunit
T4 sequence (P12314 16-374): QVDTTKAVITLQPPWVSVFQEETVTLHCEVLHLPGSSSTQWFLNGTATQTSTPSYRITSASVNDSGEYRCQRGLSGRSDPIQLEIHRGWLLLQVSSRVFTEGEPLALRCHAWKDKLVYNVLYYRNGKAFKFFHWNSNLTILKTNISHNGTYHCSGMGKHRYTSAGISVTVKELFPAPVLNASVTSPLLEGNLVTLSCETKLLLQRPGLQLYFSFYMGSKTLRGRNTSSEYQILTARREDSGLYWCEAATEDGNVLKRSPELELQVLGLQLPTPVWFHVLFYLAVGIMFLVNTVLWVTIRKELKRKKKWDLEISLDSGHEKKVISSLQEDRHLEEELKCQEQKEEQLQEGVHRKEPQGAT
Description: (§1) Bindings of humanized anti-PD-L1 in various IgG1 formats (wt, IgG1mc, IgG1mf, SEQ. NO. 27-29) to FcγRs were also determined by flow cytometry. In brief, a series of stable HEK293 transfectants expressing human FcγRs were established. These stable cell lines expressed FcγRI, FcγRIIAH131, FcγRIIAR131, FcγRIIB, FcγRIIIAF158 or FcγRIIIAV158, respectively. Multi-subunit FcγRs (i.e., FcγRI and FcγRIIIA) were co-expressed with FcRγ subunit.

[2] = biological target: T1, human FcγRIIAH131 expressed on HEK293 …; experiment: as above
Description: as §1

[3] = biological target: T2, human FcγRIIAR131 expressed on HEK293 …; experiment: as above
Description: as §1

[4] = biological target: T3, human FcγRIIB expressed on HEK293 cells; experiment: as above
Description: as §1

[5] = biological target: T5, human FcγRIIIAF158 expressed on HEK293 cells (human, UniProt P08637 17-254); experiment: as above
T5 construct: whole, on cells; Co-expressed with FcRγ subunit
T5 sequence (P08637 17-254): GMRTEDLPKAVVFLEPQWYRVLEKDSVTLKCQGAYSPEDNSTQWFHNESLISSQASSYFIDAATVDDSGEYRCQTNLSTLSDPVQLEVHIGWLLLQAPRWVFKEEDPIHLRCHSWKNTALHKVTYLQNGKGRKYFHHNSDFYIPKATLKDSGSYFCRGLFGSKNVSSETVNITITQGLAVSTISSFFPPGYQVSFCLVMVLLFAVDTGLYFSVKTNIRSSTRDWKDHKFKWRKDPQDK
Description: as §1

[6] = biological target: T6, human FcγRIIIAV158 expressed on cells (human, UniProt P08637 17-254); experiment: as above
T6 construct: whole, on cells; Co-expressed with FcRγ subunit; on HEK293 cells in the FACS assays, on NK92MI/CD16V cells in the ADCC assay; also called CD16 (V158 allele)
T6 sequence (P08637 17-254 F176V limits assumed): as the sequence (P08637 17-254) above, with F160V counted along it
Description: as §1

[7] = biological target: human PD-L1, full length, expressed on cells (human, UniProt Q9NZQ7 19-290); experiment: cell-based or functional assay
Chain of human PD-L1, full length, expressed on cells (Q9NZQ7 19-290 limits assumed): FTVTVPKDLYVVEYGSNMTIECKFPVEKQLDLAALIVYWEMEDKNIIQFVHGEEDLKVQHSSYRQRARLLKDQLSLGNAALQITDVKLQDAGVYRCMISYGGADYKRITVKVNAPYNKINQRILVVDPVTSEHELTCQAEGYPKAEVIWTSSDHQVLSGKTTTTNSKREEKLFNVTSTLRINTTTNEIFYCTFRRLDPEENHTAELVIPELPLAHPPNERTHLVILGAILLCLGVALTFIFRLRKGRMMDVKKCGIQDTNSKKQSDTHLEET

mouse PD-L1/His = biological target: T7, mouse PD-L1/His (mouse (Mus musculus), UniProt Q9EP73 19-239); experiment: ELISA on coated mouse PD-L1/His, anti-human Fc-HRP [C]
T7 construct: extracellular domain; Said to be expressed and purified in a similar way to the human PD-L1/His; also called murine PD-L1/His; murine PD-L1; not shown: His tag
T7 sequence (Q9EP73 19-239): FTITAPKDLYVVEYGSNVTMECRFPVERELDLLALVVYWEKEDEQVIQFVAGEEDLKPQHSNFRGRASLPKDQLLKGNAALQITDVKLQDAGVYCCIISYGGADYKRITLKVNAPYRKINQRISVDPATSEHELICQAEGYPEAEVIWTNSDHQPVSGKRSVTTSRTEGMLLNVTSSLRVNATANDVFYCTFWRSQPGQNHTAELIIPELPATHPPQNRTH
Description: (§2) The monkey PD-L1/His and murine PD-L1/His were expressed and purified in a similar way to the human PD-L1/His as described earlier. […] The synthesized full length mAb was named as Y1-IgG1mc. The ELISA assay was performed essentially in the same way as described in the previous section. Briefly, 200 ng of PD-L1 protein was coated on each well of Nunc MaxiSorp ELISA plate (Cat. No. 442404, Nunc, Thermo Fisher). After washing and blocking, indicated concentrations of anti-PD-L1 mAbs were added and incubated at room temperature for 1 hour. After washing, the bound anti-PD-L1 mAbs were detected using a HRP-conjugated goat anti-human Fc antibody (Cat. No. A0170, Sigma).

[8] = biological target: T8, cynomolgus monkey PD-L1/His (cynomolgus monkey (Macaca fascicularis), UniProt G7PSE7 19-238); experiment: ELISA on coated cynomolgus monkey PD-L1/His, anti-human Fc-HRP [B]
T8 construct: extracellular domain; Said to be expressed and purified in a similar way to the human PD-L1/His (PD-L1-ECD/His); not shown: His tag
T8 sequence (G7PSE7 entry or part of it): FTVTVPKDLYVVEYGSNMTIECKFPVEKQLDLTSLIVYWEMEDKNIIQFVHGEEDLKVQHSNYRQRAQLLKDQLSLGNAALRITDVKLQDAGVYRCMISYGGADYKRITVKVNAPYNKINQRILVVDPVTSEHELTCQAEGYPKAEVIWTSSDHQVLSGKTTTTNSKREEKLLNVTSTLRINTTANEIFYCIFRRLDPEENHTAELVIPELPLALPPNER
Description: as §2

[9] = biological target: T4, human FcγRI expressed on HEK293 cells; experiment: FACS, monomeric mAb on FcγR-expressing HEK293 cells, goat anti-human IgG F(ab')2-Alexa Fluor 488 detection
Description: as §1

[10] = biological target: T2, human FcγRIIAR131 expressed on HEK293 …; experiment: as above
Description: as §1

[11] = biological target: T3, human FcγRIIB expressed on HEK293 cells; experiment: as above
Description: as §1

[12] = biological target: T5, human FcγRIIIAF158 expressed on HEK293 …; experiment: as above
Description: as §1

| Binder | MFI [1] | MFI [2] | MFI [3] | MFI [4] | MFI [5] | MFI [6] | IL-2 release in HuT78/P3Z: IC50 [7] | IL-2 release in HuT78/P3Z: Max inhibition [7] | IL-2 release in HuT78/PD-1: EC50 [7] | IL-2 release in HuT78/PD-1: Top line [7] | binding result (mouse PD-L1/His) | EC50 (read off the curve) [8] | binding result [9] | binding result [10] | binding result [11] | binding result [12] |
| --- | --- | --- | --- | --- | --- | --- | --- | --- | --- | --- | --- | --- | --- | --- | --- | --- |
| hu333-4A2-IgG1wt (antibody, light chain constant region (kappa) not tied to an entry for this form) heavy: not shown VL: DIQMTQSPSSLSASVGDRVTITCKASQDVGIVVAWYQQKPGKAPKLLIYWASIRHTGVPSRFSGSGSGTEFTLTISSLQPDDFATYYCQQYSNYPLYTFGQGTKVEIK | 1170 MFI | 40.5 MFI | 15.1 MFI | 19 MFI | 29.4 MFI | 91.7 MFI |  |  |  |  |  |  |  |  |  |  |
| hu333-4B2-IgG1mc (antibody) heavy: EVQLVESGGGLVQPGGSLRLSCAVSGFSLTSYGVHWVRQAPGKGLEWVAVIWAGGSTNYADSVKGRFTISKDTSKNTVYLQMNSLRAEDTAVYYCAKPYGTSAMDYWGQGTLVTVSSASTKGPSVFPLAPSSKSTSGGTAALGCLVKDYFPEPVTVSWNSGALTSGVHTFPAVLQSSGLYSLSSVVTVPSSSLGTQTYICNVNHKPSNTKVDKKVEPKSCDKTHTCPPCPAPPAAAPSVFLFPPKPKDTLMISRTPEVTCVVVDVSHEDPEVKFNWYVDGVEVHNAKTKPREEQYNSTYRVVSVLTVLHQDWLNGKEYKCKVSNKALAAPIEKTISKAKGQPREPQVYTLPPSRDELTKNQVSLTCLVKGFYPSDIAVEWESNGQPENNYKTTPPVLDSDGSFFLYSKLTVDKSRWQQGNVFSCSVMHEALHNHYTQKSLSLSPGK light: DIQMTQSPSSLSASVGDRVTITCKASQDVGIVVAWYQQKPGKAPKLLIYWASIRHTGVPSRFSGSGSGTEFTLTISSLQPDDFATYYCQQYSNYPLYTFGQGTKVEIKRTVAAPSVFIFPPSDEQLKSGTASVVCLLNNFYPREAKVQWKVDNALQSGNSQESVTEQDSKDSTYSLSSTLTLSKADYEKHKVYACEVTHQGLSSPVTKSFNRGEC | 4.78 MFI | 6.16 MFI | 3.64 MFI | 4.49 MFI | 5.42 MFI | 4.14 MFI | 0.039 µg/mL | 99% | 0.084 µg/mL | 300 pg/mL | no binding (tested: 1 µg/ml) | ~0.04 µg/mL | no binding | no binding | no binding | no binding |
| hu333-4A2-IgG1mc (antibody) heavy: EVQLVESGGGLVQPGGSLRLSCAVSGFSLTSYGVHWVRQAPGKGLEWVAVIWAGGSTNYVDSVKGRFTISKDNAKNTVYLQMNSLRAEDTAVYYCAKPYGTSAMDYWGQGTLVTVSSASTKGPSVFPLAPSSKSTSGGTAALGCLVKDYFPEPVTVSWNSGALTSGVHTFPAVLQSSGLYSLSSVVTVPSSSLGTQTYICNVNHKPSNTKVDKKVEPKSCDKTHTCPPCPAPPAAAPSVFLFPPKPKDTLMISRTPEVTCVVVDVSHEDPEVKFNWYVDGVEVHNAKTKPREEQYNSTYRVVSVLTVLHQDWLNGKEYKCKVSNKALAAPIEKTISKAKGQPREPQVYTLPPSRDELTKNQVSLTCLVKGFYPSDIAVEWESNGQPENNYKTTPPVLDSDGSFFLYSKLTVDKSRWQQGNVFSCSVMHEALHNHYTQKSLSLSPGK light: DIQMTQSPSSLSASVGDRVTITCKASQDVGIVVAWYQQKPGKAPKLLIYWASIRHTGVPSRFSGSGSGTEFTLTISSLQPDDFATYYCQQYSNYPLYTFGQGTKVEIKRTVAAPSVFIFPPSDEQLKSGTASVVCLLNNFYPREAKVQWKVDNALQSGNSQESVTEQDSKDSTYSLSSTLTLSKADYEKHKVYACEVTHQGLSSPVTKSFNRGEC | 4.29 MFI | 5.78 MFI | 3.8 MFI | 3.71 MFI | 5.2 MFI | 3.87 MFI | 0.045 µg/mL | 99% | 0.087 µg/mL | 299 pg/mL | no binding (tested: 1 µg/ml) | ~0.04 µg/mL | no binding | no binding | no binding | no binding |
| hu333-4B2-IgG1mf (antibody) heavy: EVQLVESGGGLVQPGGSLRLSCAVSGFSLTSYGVHWVRQAPGKGLEWVAVIWAGGSTNYADSVKGRFTISKDTSKNTVYLQMNSLRAEDTAVYYCAKPYGTSAMDYWGQGTLVTVSSASTKGPSVFPLAPSSKSTSGGTAALGCLVKDYFPEPVTVSWNSGALTSGVHTFPAVLQSSGLYSLSSVVTVPSSSLGTQTYICNVNHKPSNTKVDKKVEPKSCDKTHTCPPCPAPPAAGPSVFLFPPKPKDTLMISRTPEVTCVVVDVSHEDPEVKFNWYVDGVEVHNAKTKPREEQYNSTYRVVSVLTVLHQDWLNGKEYKCKVSNKALAAPIEKTISKAKGQPREPQVYTLPPSRDELTKNQVSLTCLVKGFYPSDIAVEWESNGQPENNYKTTPPVLDSDGSFFLYSKLTVDKSRWQQGNVFSCSVMHEALHNHYTQKSLSLSPGK light: DIQMTQSPSSLSASVGDRVTITCKASQDVGIVVAWYQQKPGKAPKLLIYWASIRHTGVPSRFSGSGSGTEFTLTISSLQPDDFATYYCQQYSNYPLYTFGQGTKVEIKRTVAAPSVFIFPPSDEQLKSGTASVVCLLNNFYPREAKVQWKVDNALQSGNSQESVTEQDSKDSTYSLSSTLTLSKADYEKHKVYACEVTHQGLSSPVTKSFNRGEC | 4.56 MFI | 6.12 MFI | 3.99 MFI | 3.73 MFI | 5.09 MFI | 3.91 MFI | 0.037 µg/mL | 99% | 0.075 µg/mL | 287 pg/mL | no binding (tested: 1 µg/ml) | ~0.04 µg/mL | no binding | no binding | no binding | no binding |
